Legend:
RAR-alpha = molecular target: T1, RAR-alpha (UniProt P10276 P10276:1-462); assay: EMSA; RAR alone did not produce the receptor-specific shift; details: tags: TNT reticulocyte lysate from pGEM3Z RAR-alpha cDNA; label: end-labeled
T1 sequence: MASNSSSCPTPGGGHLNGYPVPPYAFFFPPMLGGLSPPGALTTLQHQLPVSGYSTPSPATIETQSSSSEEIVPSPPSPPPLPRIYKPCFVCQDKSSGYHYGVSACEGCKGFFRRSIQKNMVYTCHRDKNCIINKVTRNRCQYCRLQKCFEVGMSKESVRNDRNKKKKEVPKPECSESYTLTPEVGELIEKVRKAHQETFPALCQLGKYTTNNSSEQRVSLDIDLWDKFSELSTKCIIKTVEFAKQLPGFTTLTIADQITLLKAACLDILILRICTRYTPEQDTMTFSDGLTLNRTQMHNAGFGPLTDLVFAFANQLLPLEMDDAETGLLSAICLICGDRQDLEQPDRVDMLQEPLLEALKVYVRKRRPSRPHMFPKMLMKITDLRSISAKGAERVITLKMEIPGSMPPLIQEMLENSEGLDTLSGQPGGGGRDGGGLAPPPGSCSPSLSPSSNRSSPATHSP
From the text: (§1) In vitro translated RAR-α was produced essentially as described under Example 8, except that ^35S-labeled methoinine was omitted. In vitro translated RXR-α was similarly produced using a pBluescript(II)(SK)-based vector containing the RXR-α cDNA described by Mangelsdorf, et al. in *Nature* 345:224–229 (1990) as the template for generating in vitro transcripts. The labeled RAR-α and RXR-α, alone or in combination, or prebound with AGN 193109 (10^-6M) either alone or in combination, were allowed to interact with an end-labeled DR-5 RARE double-stranded probe having the sequence 5'-[…]-3' (SEQ ID NO:1). The binding mixture was electrophoresed on a non-denaturing polyacrylamide gel and autoradiographed according to standard laboratory procedures. A single retarded species appearing on the autoradiograph that was common to all the lanes on the gel represented an undefined probe-binding factor present in the reticulocyte lysate. Only the RAR/RXR combination gave rise to a retinoid receptor-specific retarded species. Neither RAR alone nor RXR alone bound the probe to produce this shifted species.

RXR-alpha = RXR-alpha (UniProt P19793 P19793:1-462); assay: EMSA; RXR alone did not produce the receptor-specific shift; details: tags: reticulocyte lysate from pBluescript(II)(SK) RXR-alpha cDNA; label: end-labeled
RXR-alpha, sequence (P19793 whole entry, one chain of several): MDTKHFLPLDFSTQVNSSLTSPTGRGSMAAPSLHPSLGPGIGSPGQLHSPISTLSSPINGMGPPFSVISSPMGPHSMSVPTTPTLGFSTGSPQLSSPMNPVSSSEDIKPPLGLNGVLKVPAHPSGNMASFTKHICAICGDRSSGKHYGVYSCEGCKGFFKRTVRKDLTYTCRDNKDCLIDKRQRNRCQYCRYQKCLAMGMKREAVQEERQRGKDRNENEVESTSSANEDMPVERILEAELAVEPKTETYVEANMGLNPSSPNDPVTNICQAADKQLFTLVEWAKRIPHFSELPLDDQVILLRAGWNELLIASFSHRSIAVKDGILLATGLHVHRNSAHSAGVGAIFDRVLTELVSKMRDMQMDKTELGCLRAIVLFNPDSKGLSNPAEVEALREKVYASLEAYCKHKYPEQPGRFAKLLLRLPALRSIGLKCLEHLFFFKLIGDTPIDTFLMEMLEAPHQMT
From the text: as §1

B1: DR-5 RARE probe (dsDNA)
DNA 1: TCAGGTCACCAGGAGGTCAGA
DNA 2: TCTGACCTCCTGGTGACCTGA
binding result (RAR-alpha): no binding | binding result (RXR-alpha): no binding

Reference: patent US5958954, “Synthesis and use of retinoid compounds having negative hormone and/or antagonist activities” (Allergan Sales, Inc.)
